Assay results reported in PMC8062585, “Machine learning guided aptamer refinement and discovery”.

B1: G13.8 (G13_23) (ssDNA)
DNA: GAGGATTTGGTGGATAGTAAATC
modifications: 5' biotin
B2: G12.5 (G12_23) (ssDNA)
DNA: ACGTTTTTGGTGGATAGCAAATG
modifications: 5' biotin
B3: G12.3 (ssDNA)
DNA: ACGTTTTTGGTGGATAGCAAATGCCAGGGCC
modifications: 5' biotin
B4: G13.3 (ssDNA)
DNA: CAAGAGGATTTGGTGGATAGTAAATCTTTGC
modifications: 5' biotin
B5: G13.2 (ssDNA)
DNA: CAAGAGGATTTGGTGGATAGTAAATCTTTGCCTAT
modifications: 5' biotin
B6: G12.4 (ssDNA)
DNA: ACGTTTTTGGTGGATAGCAAATGCCAG
modifications: 5' biotin
B7: G13.11 (ssDNA)
DNA: AGAGGATTTGGTGGATAGT
modifications: 5' biotin
B8: G13.7 (ssDNA)
DNA: AGAGGATTTGGTGGATAGTAAAT
modifications: 5' biotin
B9: G13.1 (ssDNA)
DNA: CAAGAGGATTTGGTGGATAGTAAATCTTTGCCTATCCAG
modifications: 5' biotin
B10: G13.4 (ssDNA)
DNA: GAGGATTTGGTGGATAGTAAATCTTTG
modifications: 5' biotin
B11: G12.6 (ssDNA)
DNA: GTTTTTGGTGGATAGCAAA
modifications: 5' biotin
B12: G13.5 (ssDNA)
DNA: AAGAGGATTTGGTGGATAGTAAATCTT
modifications: 5' biotin
B13: G13.12 (ssDNA)
DNA: TTTGGTGGATAGTAA
modifications: 5' biotin
B14: G12.2 (ssDNA)
DNA: ACGTTTTTGGTGGATAGCAAATGCCAGGGCCCTTT
modifications: 5' biotin
B15: G12.1 (ssDNA)
DNA: ACGTTTTTGGTGGATAGCAAATGCCAGGGCCCTTTTTTG
modifications: 5' biotin

These binders were tested against T1, NGAL (UniProt P80188 21-198) (assay: bead-based fluorescence binding (flow cytometry); PBSMCT: DPBS with 2.5 mM MgCl2, 0.9 mM CaCl2, 0.01% Tween 20; room temperature, 1 h; bound NGAL detected with iFluor 647 anti-His antibody (6 nM)). Details: protein: commercial; tags: C-terminal His-tag; hairpin (predicted).
T1 sequence (P80188 21-198): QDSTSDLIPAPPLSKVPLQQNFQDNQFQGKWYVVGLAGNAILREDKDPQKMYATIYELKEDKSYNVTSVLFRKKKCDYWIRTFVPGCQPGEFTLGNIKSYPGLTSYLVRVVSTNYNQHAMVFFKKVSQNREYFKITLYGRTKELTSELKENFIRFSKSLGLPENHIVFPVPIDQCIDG

Q: For B1, which Kd is on record?
A: 1.5 nM

Q: Which Kd does the source give for B2 here?
A: 11 nM

The binders below were run against T1, NGAL (assay: bead-based fluorescence, 4-concentration estimate; PBSMCT: DPBS with 2.5 mM MgCl2, 0.9 mM CaCl2, 0.01% Tween 20; room temperature, 1 h; bound NGAL detected with iFluor 647 anti-His antibody (6 nM)). Details: protein: commercial; tags: C-terminal His-tag.

Q: With B3 as the binder, how does the Kd read?
A: < 32 nM

Q: B4 was tested. Which Kd did it give?
A: < 8 nM

Q: With B5 as the binder, how does the Kd read?
A: < 16 nM

Q: How did the Kd turn out when B6 was run?
A: < 16 nM

Q: How did the Kd turn out when B7 was run?
A: < 1020 nM

Q: With B8 as the binder, how does the Kd read?
A: < 16 nM

Q: How did the Kd turn out when B9 was run?
A: < 16 nM

Q: Which Kd does the source give for B10 here?
A: < 8 nM

Q: For B11, which Kd is on record?
A: < 32 nM

Q: Which Kd does the source give for B12 here?
A: < 8 nM

Q: Which Kd does the source give for B13 here?
A: < 256 nM

Q: How did the Kd turn out when B14 was run?
A: < 32 nM

Q: With B15 as the binder, how does the Kd read?
A: < 16 nM

Same assay, conditions: protein: commercial; tags: C-terminal His-tag; hairpin (predicted)

Q: B1 was tested. Which Kd did it give?
A: < 8 nM

Q: How did the Kd turn out when B2 was run?
A: < 16 nM
